Test results taken from the MegaScale stability set (Tsuboyama et al. 2023).

B1: EHEE_rd2_0191 (parent)
chain: TTEYTFTDDEEARRAIEELKKRGLTFRYEKHGTTWRVRVD

Variants of: B1
Assay: folding stability dG (cDNA display proteolysis); higher = more stable
Details: PBS, room temperature

| Variant | folding stability dG [kcal/mol] |
| --- | --- |
| TTEYTITDDEEARRAIEELKKRGLTFRYEKHGTTWRVRVD | 0.614 |
| TTEYTMTDDEEARRAIEELKKRGLTFRYEKHGTTWRVRVD | -0.111 |
| TTEYTGTDDEEARRAIEELKKRGLTFRYEKHGTTWRVRVD | -0.522 |
| TTEYTTTDDEEARRAIEELKKRGLTFRYEKHGTTWRVRVD | -0.433 |
| TTEYTYTDDEEARRAIEELKKRGLTFRYEKHGTTWRVRVD | 1.96 |
| TTEYTLTDDEEARRAIEELKKRGLTFRYEKHGTTWRVRVD | 0.168 |
| TTEYTWTDDEEARRAIEELKKRGLTFRYEKHGTTWRVRVD | 0.741 |
| TTEYTFTDKEEARRAIEELKKRGLTFRYEKHGTTWRVRVD | 1.77 |
| TTEYTFTDEEEARRAIEELKKRGLTFRYEKHGTTWRVRVD | 2.41 |
| TTEYTFTDLEEARRAIEELKKRGLTFRYEKHGTTWRVRVD | 1.91 |
| TTEYTFTDMEEARRAIEELKKRGLTFRYEKHGTTWRVRVD | 1.83 |
| TTEYTFTDQEEARRAIEELKKRGLTFRYEKHGTTWRVRVD | 1.8 |
| TTEYTFTDAEEARRAIEELKKRGLTFRYEKHGTTWRVRVD | 2.15 |
| TTEYTFTDPEEARRAIEELKKRGLTFRYEKHGTTWRVRVD | 2.3 |
| TTEYTFTDREEARRAIEELKKRGLTFRYEKHGTTWRVRVD | 1.92 |
| TTEYTFTDFEEARRAIEELKKRGLTFRYEKHGTTWRVRVD | 2.33 |
| TTEYTFTDTEEARRAIEELKKRGLTFRYEKHGTTWRVRVD | 1.3 |
| TTEYTFTDYEEARRAIEELKKRGLTFRYEKHGTTWRVRVD | 2.39 |
| TTEYTFTDSEEARRAIEELKKRGLTFRYEKHGTTWRVRVD | 1.81 |
| TTEYTFTDIEEARRAIEELKKRGLTFRYEKHGTTWRVRVD | 2.08 |
| TTEYTFTDHEEARRAIEELKKRGLTFRYEKHGTTWRVRVD | 1.73 |
| TTEYTFTDGEEARRAIEELKKRGLTFRYEKHGTTWRVRVD | 1.81 |
| TTEYTFTDNEEARRAIEELKKRGLTFRYEKHGTTWRVRVD | 1.63 |
| TTEYTFTDVEEARRAIEELKKRGLTFRYEKHGTTWRVRVD | 2 |
| TTEYTFTDWEEARRAIEELKKRGLTFRYEKHGTTWRVRVD | 3.27 |

| Variant | folding stability dG [kcal/mol] |
| --- | --- |
| TTEYTFTDDETARRAIEELKKRGLTFRYEKHGTTWRVRVD | 2.31 |
| TTEYTFTDDEFARRAIEELKKRGLTFRYEKHGTTWRVRVD | 1.37 |
| TTEYTFTDDEMARRAIEELKKRGLTFRYEKHGTTWRVRVD | 2.02 |
| TTEYTFTDDEYARRAIEELKKRGLTFRYEKHGTTWRVRVD | 1.29 |
| TTEYTFTDDELARRAIEELKKRGLTFRYEKHGTTWRVRVD | 1.84 |
| TTEYTFTDDEHARRAIEELKKRGLTFRYEKHGTTWRVRVD | 1.77 |
| TTEYTFTDDEWARRAIEELKKRGLTFRYEKHGTTWRVRVD | 1.5 |
| TTEYTFTDDEDARRAIEELKKRGLTFRYEKHGTTWRVRVD | 1.88 |
| TTEYTFTDDEGARRAIEELKKRGLTFRYEKHGTTWRVRVD | 1.46 |
| TTEYTFTDDENARRAIEELKKRGLTFRYEKHGTTWRVRVD | 1.56 |
| TTEYTFTDDECARRAIEELKKRGLTFRYEKHGTTWRVRVD | 2.14 |
| TTEYTFTDDEKARRAIEELKKRGLTFRYEKHGTTWRVRVD | 1.73 |
| TTEYTFTDDEAARRAIEELKKRGLTFRYEKHGTTWRVRVD | 2.16 |
| TTEYTFTDDEQARRAIEELKKRGLTFRYEKHGTTWRVRVD | 2.1 |
| TTEYTFTDDESARRAIEELKKRGLTFRYEKHGTTWRVRVD | 2.43 |
| TTEYTFTDDEVARRAIEELKKRGLTFRYEKHGTTWRVRVD | 1.85 |
| TTEYTFTDDEIARRAIEELKKRGLTFRYEKHGTTWRVRVD | 1.78 |
| TTEYTFTDDERARRAIEELKKRGLTFRYEKHGTTWRVRVD | 1.54 |
| TTEYTFTDDEPARRAIEELKKRGLTFRYEKHGTTWRVRVD | 0.754 |
| TTEYTFTDDVEARRAIEELKKRGLTFRYEKHGTTWRVRVD | 2.02 |
| TTEYTFTDDPEARRAIEELKKRGLTFRYEKHGTTWRVRVD | 0.527 |
| TTEYTFTDDKEARRAIEELKKRGLTFRYEKHGTTWRVRVD | 1.98 |
| TTEYTFTDDREARRAIEELKKRGLTFRYEKHGTTWRVRVD | 1.99 |
| TTEYTFTDDDEARRAIEELKKRGLTFRYEKHGTTWRVRVD | 2.15 |
| TTEYTFTDDMEARRAIEELKKRGLTFRYEKHGTTWRVRVD | 1.96 |

| Variant | folding stability dG [kcal/mol] |
| --- | --- |
| TTEYTFTDDFEARRAIEELKKRGLTFRYEKHGTTWRVRVD | 1.98 |
| TTEYTFTDDAEARRAIEELKKRGLTFRYEKHGTTWRVRVD | 2.09 |
| TTEYTFTDDWEARRAIEELKKRGLTFRYEKHGTTWRVRVD | 1.93 |
| TTEYTFTDDLEARRAIEELKKRGLTFRYEKHGTTWRVRVD | 1.98 |
| TTEYTFTDDHEARRAIEELKKRGLTFRYEKHGTTWRVRVD | 1.93 |
| TTEYTFTDDIEARRAIEELKKRGLTFRYEKHGTTWRVRVD | 2 |
| TTEYTFTDDNEARRAIEELKKRGLTFRYEKHGTTWRVRVD | 2.12 |
| TTEYTFTDDSEARRAIEELKKRGLTFRYEKHGTTWRVRVD | 1.87 |
| TTEYTFTDDYEARRAIEELKKRGLTFRYEKHGTTWRVRVD | 1.96 |
| TTEYTFTDDTEARRAIEELKKRGLTFRYEKHGTTWRVRVD | 2.02 |
| TTEYTFTDDQEARRAIEELKKRGLTFRYEKHGTTWRVRVD | 1.95 |
| TTEYTFTDDGEARRAIEELKKRGLTFRYEKHGTTWRVRVD | 2.07 |
| TTEYSFTDDEEARRAIEELKKRGLTFRYEKHGTTWRVRVD | 1.49 |
| TTEYWFTDDEEARRAIEELKKRGLTFRYEKHGTTWRVRVD | 2.68 |
| TTEYYFTDDEEARRAIEELKKRGLTFRYEKHGTTWRVRVD | 2.39 |
| TTEYVFTDDEEARRAIEELKKRGLTFRYEKHGTTWRVRVD | 2.54 |
| TTEYTFTDDEEMRRAIEELKKRGLTFRYEKHGTTWRVRVD | 2.33 |
| TTEYTFTDDEERRRAIEELKKRGLTFRYEKHGTTWRVRVD | -0.372 |
| TTEYTFTDDEELRRAIEELKKRGLTFRYEKHGTTWRVRVD | 2.53 |
| TTEYTFTDDEEQRRAIEELKKRGLTFRYEKHGTTWRVRVD | -0.999 |
| TTEYTFTDDEEFRRAIEELKKRGLTFRYEKHGTTWRVRVD | 3.56 |
| TTEYTFTDDEEIRRAIEELKKRGLTFRYEKHGTTWRVRVD | 0.942 |
| TTEYTFTDDEEYRRAIEELKKRGLTFRYEKHGTTWRVRVD | 1.66 |
| TTEYTFTDDEECRRAIEELKKRGLTFRYEKHGTTWRVRVD | 2.13 |
| TTEYTFTDDEETRRAIEELKKRGLTFRYEKHGTTWRVRVD | 0.424 |

| Variant | folding stability dG [kcal/mol] |
| --- | --- |
| TTEYTFTDDEEGRRAIEELKKRGLTFRYEKHGTTWRVRVD | 1.04 |
| TTEYTFTDDEEVRRAIEELKKRGLTFRYEKHGTTWRVRVD | 1.47 |
| TTEYTFTDDEEHRRAIEELKKRGLTFRYEKHGTTWRVRVD | 0.073 |
| TTEYTFTDDEEKRRAIEELKKRGLTFRYEKHGTTWRVRVD | -0.512 |
| TTEYTFTDDEESRRAIEELKKRGLTFRYEKHGTTWRVRVD | -0.064 |
| TTEYTFTDDEEWRRAIEELKKRGLTFRYEKHGTTWRVRVD | 1.63 |
| TTEYTFMDDEEARRAIEELKKRGLTFRYEKHGTTWRVRVD | 1.82 |
| TTEYTFDDDEEARRAIEELKKRGLTFRYEKHGTTWRVRVD | 1.97 |
| TTEYTFRDDEEARRAIEELKKRGLTFRYEKHGTTWRVRVD | 1.59 |
| TTEYTFGDDEEARRAIEELKKRGLTFRYEKHGTTWRVRVD | 1.37 |
| TTEYTFHDDEEARRAIEELKKRGLTFRYEKHGTTWRVRVD | 2.13 |
| TTEYTFADDEEARRAIEELKKRGLTFRYEKHGTTWRVRVD | 1.63 |
| TTEYTFFDDEEARRAIEELKKRGLTFRYEKHGTTWRVRVD | 2.22 |
| TTEYTFSDDEEARRAIEELKKRGLTFRYEKHGTTWRVRVD | 1.75 |
| TTEYTFCDDEEARRAIEELKKRGLTFRYEKHGTTWRVRVD | 2.34 |
| TTEYTFPDDEEARRAIEELKKRGLTFRYEKHGTTWRVRVD | 0.677 |
| TTEYTFKDDEEARRAIEELKKRGLTFRYEKHGTTWRVRVD | 1.62 |
| TTEYTFIDDEEARRAIEELKKRGLTFRYEKHGTTWRVRVD | 1.68 |
| TTEYTFQDDEEARRAIEELKKRGLTFRYEKHGTTWRVRVD | 1.88 |
| TTEYTFNDDEEARRAIEELKKRGLTFRYEKHGTTWRVRVD | 1.97 |
| TTEYTFVDDEEARRAIEELKKRGLTFRYEKHGTTWRVRVD | 1.71 |
| TTEYTFWDDEEARRAIEELKKRGLTFRYEKHGTTWRVRVD | 1.89 |
| TTEYTFLDDEEARRAIEELKKRGLTFRYEKHGTTWRVRVD | 1.83 |
| TTEYTFYDDEEARRAIEELKKRGLTFRYEKHGTTWRVRVD | 2.47 |
| TTEYTFEDDEEARRAIEELKKRGLTFRYEKHGTTWRVRVD | 2.07 |

| Variant | folding stability dG [kcal/mol] |
| --- | --- |
| TTEYTFTDDEEADRAIEELKKRGLTFRYEKHGTTWRVRVD | 0.9 |
| TTEYTFTDDEEAARAIEELKKRGLTFRYEKHGTTWRVRVD | 1.85 |
| TTEYTFTDDEEAERAIEELKKRGLTFRYEKHGTTWRVRVD | 1.79 |
| TTEYTFTDDEEAHRAIEELKKRGLTFRYEKHGTTWRVRVD | 1.98 |
| TTEYTFTDDEEAGRAIEELKKRGLTFRYEKHGTTWRVRVD | 1.44 |
| TTEYTFTDDEEAIRAIEELKKRGLTFRYEKHGTTWRVRVD | 2.1 |
| TTEYTFTDDEEAFRAIEELKKRGLTFRYEKHGTTWRVRVD | 2.31 |
| TTEYTFTDDEEAKRAIEELKKRGLTFRYEKHGTTWRVRVD | 2.04 |
| TTEYTFTNDEEARRAIEELKKRGLTFRYEKHGTTWRVRVD | 2.41 |
| TTEYTFTMDEEARRAIEELKKRGLTFRYEKHGTTWRVRVD | 0.896 |
| TTEYTFTKDEEARRAIEELKKRGLTFRYEKHGTTWRVRVD | 1.37 |
| TTEYTFTGDEEARRAIEELKKRGLTFRYEKHGTTWRVRVD | 1.33 |
| TTEYTFTQDEEARRAIEELKKRGLTFRYEKHGTTWRVRVD | 1.16 |
| TTEYTFTEDEEARRAIEELKKRGLTFRYEKHGTTWRVRVD | 1.29 |
| TTEYTFTLDEEARRAIEELKKRGLTFRYEKHGTTWRVRVD | 1.08 |
| TTEYTFTADEEARRAIEELKKRGLTFRYEKHGTTWRVRVD | 1.24 |
| TTEYTFTTDEEARRAIEELKKRGLTFRYEKHGTTWRVRVD | 2.29 |
| TTEYTFTVDEEARRAIEELKKRGLTFRYEKHGTTWRVRVD | 1.36 |
| TTEYTFTYDEEARRAIEELKKRGLTFRYEKHGTTWRVRVD | 0.721 |
| TTEYTFTHDEEARRAIEELKKRGLTFRYEKHGTTWRVRVD | 1.32 |
| TTEYTFTWDEEARRAIEELKKRGLTFRYEKHGTTWRVRVD | 0.65 |
| TTEYTFTFDEEARRAIEELKKRGLTFRYEKHGTTWRVRVD | 0.882 |
| TTEYTFTIDEEARRAIEELKKRGLTFRYEKHGTTWRVRVD | 1.2 |
| TTEYTFTSDEEARRAIEELKKRGLTFRYEKHGTTWRVRVD | 2.44 |
| TTEYTFTRDEEARRAIEELKKRGLTFRYEKHGTTWRVRVD | 1.39 |
